Where no end group is shown, it is not given here. [ ]: non-standard residue; d: D form. NMeR = CN[C@@H](CCCNC(=N)N)C(=O)O; aThr = C[C@H](O)[C@H](N)C(=O)O; Nva = CCC[C@H](N)C(=O)O; Ahx = NCCCCCC(=O)O; βAla = NCCC(=O)O
B1: peptide of amino acid sequence Thr-Glu-Nva-Val-Ala-Leu-Ser-Arg-AcpNH2 [SEQ ID NO:4] (peptide)
peptide: TE[Nva]VALSR[Ahx]-NH2
modifications: N-terminus assumed
SMILES: CCC[C@H](NC(=O)[C@H](CCC(=O)O)NC(=O)[C@@H](N)[C@@H](C)O)C(=O)N[C@H](C(=O)N[C@@H](C)C(=O)N[C@@H](CC(C)C)C(=O)N[C@@H](CO)C(=O)N[C@@H](CCCNC(=N)N)C(=O)NCCCCCC(N)=O)C(C)C
B2: peptide of amino acid sequence Thr-Glu-Nva-Nva-Ala-Leu-Ser-Arg-NvaNH2 [SEQ ID NO:47] (peptide)
peptide: TE[Nva][Nva]ALSR[Nva]-NH2
modifications: N-terminus assumed
SMILES: CCC[C@H](NC(=O)[C@H](CCCNC(=N)N)NC(=O)[C@H](CO)NC(=O)[C@H](CC(C)C)NC(=O)[C@H](C)NC(=O)[C@H](CCC)NC(=O)[C@H](CCC)NC(=O)[C@H](CCC(=O)O)NC(=O)[C@@H](N)[C@@H](C)O)C(N)=O
B3: peptide of amino acid sequence alloThr-Glu-Nva-Val-Ala-Leu-Ser-Arg-AcpNH2 [SEQ ID NO:49] (peptide)
peptide: [aThr]E[Nva]VALSR[Ahx]-NH2
modifications: N-terminus assumed
SMILES: CCC[C@H](NC(=O)[C@H](CCC(=O)O)NC(=O)[C@@H](N)[C@H](C)O)C(=O)N[C@H](C(=O)N[C@@H](C)C(=O)N[C@@H](CC(C)C)C(=O)N[C@@H](CO)C(=O)N[C@@H](CCCNC(=N)N)C(=O)NCCCCCC(N)=O)C(C)C
B4: peptide of amino acid sequence Glu-Nva-Val-Ala-Leu-Ser-Arg-AcpNH2 [SEQ ID NO:51] (peptide)
peptide: E[Nva]VALSR[Ahx]-NH2
modifications: N-terminus assumed
SMILES: CCC[C@H](NC(=O)[C@@H](N)CCC(=O)O)C(=O)N[C@H](C(=O)N[C@@H](C)C(=O)N[C@@H](CC(C)C)C(=O)N[C@@H](CO)C(=O)N[C@@H](CCCNC(=N)N)C(=O)NCCCCCC(N)=O)C(C)C

Experiments:
[1] = biological target: T1, leptin receptor (ObR) naturally expressed on MCF-7, LN229 and LN18 cells (human); assay: cell-based or functional assay
[2] = biological target: T1, leptin receptor (ObR) naturally …; assay: cell-based or functional assay; remark: listed apart in the source

Binder | IC50, proliferation and XTT metabolic activity assays, LN229 and MCF-7 cells with leptin [1] [nM] | EC50, proliferation of ObR-positive cancer cells in the absence of leptin [2] [nM] | IC50, proliferation of ObR-positive cancer cells in the presence of leptin (6 nM) [2] [nM] | IC100, proliferation of ObR-positive cancer cells in the presence of leptin (6 nM) [2] [nM]
B1 | 2 to 3 | > 1000 | 5 | 50
[dS]E[Nva]VALS[NMeR][βAla]-NH2 [peptide of amino acid sequence (D)-Ser-Glu-Nva-Val-Ala-Leu-Ser-N-MeArg-bAlaNH2 [SEQ ID NO:6]] | – | > 1000 | 0.2 | < 1
B2 | – | > 1000 | 1000 | –
B3 | – | > 1000 | 0.2 | 5
B4 | – | > 500 | 50 | 100
